Six molecules from patent publication US10563181B2, “Molecular cloning and expression of cDNA encoding O-methyltransferase isolated from Mangifera indica” (COUNCIL OF SCIENTIFIC & INDUSTRIAL RESEARCH, priority 2015, dated 2020) can be followed below.

Read-outs that look alike come from different tables or passages of the source.

In data set [1] the test system is recombinant MiOMTS. The experiment in a line: In vitro enzymatic assay of recombinant MiOMTS with candidate substrates and SAM as methyl group donor. It counts as biochemical, Mangifera indica. As to conditions: 0.2 mM substrate, 0.01 mM SAM, 30° C. for 30 min; products identified by UHPLC-Orbitrap MS. On the procedure: The complete ORF of MiOMTS cDNA was cloned in pGEX-4T vector and the protein was expressed as GST-tag fusion protein in E. coli BL21 (DE3) cells. The protein was purified using GST affinity chromatography and released from the tag using thrombin. […] The purified protein was assayed for its activity with furaneol, caffeic acid, catechol and protocatechuic aldehyde as substrates and S-adenosyl-L-metheonine (SAM) as methyl group donor. The methylation products of these substrates upon MiOMTS enzymatic reaction were identified and analysed on high resolution mass spectrometer. […] In contrast to furaneol and protocatechuic aldehyde, MiOMTS could not use caffeic acid and catechol as the methyl group acceptor.
(§1) The in vitro enzymatic assays were carried out in the lysis buffer containing appropriate amount of protein, 0.2 mM substrate and 0.01 mM S-adenosylmetheonine (SAM) in a final volume of 500 μl reaction. The reaction was incubated at 30° C. for 30 min. For the determination of optimum pH for the enzyme activity, the assays were performed in 50 mM citrate buffer (pH 4.0 and 5.0), 50 mM phosphate buffer (pH 6.0, 6.5, 7.0 and 7.5) and 50 mM Tris buffer (pH 8.0, 8.5 and 9.0) keeping other components in the assay same as above. Similarly, for optimum temperature the assays were performed at 15, 20, 25, 30, 35 and 40° C. Assay products were extracted twice with ethyl acetate; the organic layers were pooled, dried in a concentrator and constituted with methanol. An Accela™ ultra high performance liquid chromatography (UHPLC) system (ThermoFisher, Waltham, USA), coupled online via heated electrospray ionization source (HESI) with a Q-Exactive-Orbitrap mass spectrometer (ThermoFisher), was employed with 20 μL sample injection volume and the chromatograms were obtained by total ion monitoring in a positive ion mode. The products were separated and analysed on Hypercil GOLD C-18 reverse phase column (150 mm×3 mm i. d., particle size 5 μm, Thermo Scientific, Waltham, Mass., USA) with a linear gradient of 95% water acidified with 0.05% formic acid and 5% methanol to 80% methanol and 20% water with the flow rate of […]. The sample manager was maintained at 4° C. Identification of the substrates as well as products were done by comparing the retention time and molecular mass of authentic external standards [furaneol (CAS No. 3658-77-3), mesifuran (CAS No. 4077-47-8), protocatechuic aldehyde (CAS No. 139-85-5) and vanillin (CAS No. 121-33-5)] procured from Sigma Aldrich, USA.

In data set [2] the test system is MiOMTS transcripts. As to conditions: 5DAH ethylene treated vs 20DAH conventionally ripened.
Protocol: Quantitative real-time PCR was performed using Fast Start Universal SYBR Green master mix (Roche Inc. Indianapolis, Ind., USA) and elongation factor 1α as an endogenous control employing the primers mentioned earlier (Pandit et al., 2010). Transcripts of MiOMTS were amplified using primers;
Quantification was done by ViiA™ 7 Real-Time PCR System (Applied Biosystems, CA, USA) having thermal cycle programme of initial denaturation at 95° C. for 10 min with subsequent 40 cycles of 95° C. for 3 sec and 60° C. for 30 sec followed by a dissociation curve analysis of transcripts. […] The quantification was done for three independent biological replicates separately, each of which was represented by at least three technical replicates. […] The uniformity of expression across the tissues was monitored using elongation factor 1α (EF1α) gene as an endogenous control.
To get better understanding of synthesis of mesifuran during late ripening stages of Alphonso mango and its regulation at transcriptional level, the transcripts of MiOMTS were profiled during the conventional ripening of Alphonso mango. […] To further assess this at transcript level, the transcripts of MiOMTS were analyzed in the fruits which were subjected to the postharvest ethylene treatment.
For data set [3], the system named is recombinant MiOMTS. In words: Optimum pH and temperature for the activity of recombinant MiOMTS using furaneol as a substrate. It counts as biochemical, Mangifera indica. On the procedure: In order to evaluate the optimum biochemical conditions for the activity of recombinant MiOMTS, assays were performed at varied pH and temperatures using furaneol as a substrate. […] In case of temperature, optimum activity was detected at 25° C., with retention of 60% activity at 30° C.
as §1

Take `O=C(O)/C=C/c1ccc(O)c(O)c1` [caffeic acid]: in data set [1], the “use of substrate as methyl group acceptor (methylation) by MiOMTS” value (“use of substrate” for short) was “could not use”.
As for `Oc1ccccc1O` [catechol], the “use of substrate” value in data set [1] is “could not use”.
As for `CC1=C(O)C(=O)C(C)O1` (centres unmarked) [furaneol, 4-hydroxy-2,5-dimethyl-3(2H)-furanone], the “use of substrate” value in data set [1] was “successfully used for methylation”.
Same read-out and setting: the result for `O=Cc1ccc(O)c(O)c1` [protocatechuic aldehyde] reads “successfully used for methylation”.
For the molecule `C=C` [ethylene], the “MiOMTS transcript abundance, fold higher than conventionally ripened fruits” value in data set [2] (pulp) is 19 fold; in data set [2] (skin), 82 fold.

B1: MiOMTS: O-methyltransferase enzyme protein from Mangifera indica, having SEQ ID No.3, recombinantly expressed in E. coli (protein)
chain: MGSLEVKTLLEGQAEVWQYMFGFADSMVLKSAVELRLADIIHSYGGPMSLSQIASKIDSASPNIPYLGRIMRMLARKGVFGAHRPSEGGDTTYGLTHISTWLRHDSELSLAPMILMENNLWQLAPWHYLSQCVKQGGIAFKKAHGCEMWDFASQNPEFNKLFNDALACTTKIVMRAFLSQYKEGFNNVRSLVDVGGGTGGELAEILKTYPHMKGINFDLPHVVATAPEYDGVSNVGGNMFDAIPNADVIFMKWILHDWSDEACVKILKNCRKAIPEKTGRVVLVEIVLQENGDNMFGNMDVVFDLLMFAHTTGGKERTEPEWKKLLEEGGFPRYNIINIPALPSIIEAYPL
modifications: O-methyltransferase enzyme protein sequence; O-methyltransferase peptide or enzyme sequence
For the molecule B1, the “optimum pH for activity” value in data set [3] came to 7.0. Besides, the “optimum temperature for activity” value in data set [3] stood at 25 °C. Moreover, the “reduction in the activity” value in data set [3] (20° C.) and in data set [3] (pH 8.5) was “more than 50%” in each case. In addition, the retention of activity was 60% in data set [3] (30° C., relative to 25° C.); 70% in data set [3] (pH 6.0, relative to pH 7.0); 90% in data set [3] (pH 8.0, relative to pH 7.0). Besides, the activity result in data set [3] (40° C.) is “complete inactivation”; in data set [3] (pH 4), “no activity was detected”; in data set [3] (pH 5), “no activity was detected”; in data set [3] (pH 9) it was “no activity was detected”.
